B1: SAN2, C-terminally truncated SAN peptide carrying the first 159 amino acids, His-tagged (other)
chain: RGSHHHHHHGSGTATTINASSSAINTNTNAKYDVDVTPSVSAVAANTANNTPAIAGNLTGTISASYNGKTYTANLKADTENATITAAGSTTAVKPAELAAGVAYTVTVNDVSFNFGSENAGKTVTLGSANSNVKFTGTNSDNQTETNVSTLKVKLDQNGVASLTNVSIANVY
B2: SAN4, C-terminally truncated SAN peptide carrying the first 149 amino acids, His-tagged (other)
chain: RGSHHHHHHGSGTATTINASSSAINTNTNAKYDVDVTPSVSAVAANTANNTPAIAGNLTGTISASYNGKTYTANLKADTENATITAAGSTTAVKPAELAAGVAYTVTVNDVSFNFGSENAGKTVTLGSANSNVKFTGTNSDNQTETNVSTLKVKLDQNGVAS
B3: SAN6, C-terminally truncated SAN peptide, His-tagged (other)
chain: RGSHHHHHHGSGTATTINASSSAINTNTNAKYDVDVTPSVSAVAANTANNTPAIAGNLTGTISASYNGKTYTANLKADTENATITAAGSTTAVKPAELAAGVAYTVTVNDVSFNFGSENAGKTVTLG
B4: SAN7, N-terminally truncated SAN peptide, His-tagged (other)
chain: RGSHHHHHHGSGTSANSNVKFTGTNSDNQTETNVSTLKVKLDQNGVASLTNVSIANVYAINTTDNSNVNFYDVTSGATVTNGAVSVNADNQGQVNVANVVAAINSKYFAAQYADKKLNTRTANTEDAIKAALKDQKIDVNSVGYFKAPHTFTVNVKATSNTNGKSATLPVVVTVPNVAEPTVASVSKRI
B5: SAN, crystallisation domain of SA-protein (amino acids 1-290), His-tagged (other)
chain: ATTINASSSAINTNTNAKYDVDVTPSVSAVAANTANNTPAIAGNLTGTISASYNGKTYTANLKADTENATITAAGSTTAVKPAELAAGVAYTVTVNDVSFNFGSENAGKTVTLGSANSNVKFTGTNSDNQTETNVSTLKVKLDQNGVASLTNVSIANVYAINTTDNSNVNFYDVTSGATVTNGAVSVNADNQGQVNVANVVAAINSKYFAAQYADKKLNTRTANTEDAIKAALKDQKIDVNSVGYFKAPHTFTVNVKATSNTNGKSATLPVVVTVPNVAEPTVASVSKRI
notes: Construct from Smit et al. 2001; not shown: His-tag (detected with anti-his antibody)

Experiments:
[1] = molecular target: the molecule itself; assay: SDS-PAGE and western blot, self-association (dimer)
Excerpt: To get further insight in the structure of SAN, vectors were constructed encoding C-terminally (SAN2, 4 and 6 carrying the first 159, 149 and 113 amino acids) or N-terminally truncated peptides (SAN7, 3 and 5 comprising the last 177, 151 and 141 amino acids). The truncated His-tagged genes were expressed in E. coli and the peptides SAN2, SAN4, SAN6 and SAN7 were purified by affinity chromatography. The peptides SAN3 and SAN5 were produced at very low levels and could not be purified probably due to increased sensitivity to E. coli proteases.
Three DNA fragments encoding C-terminally truncated SAN peptides were amplified by PCR with pBK1 (Boot et al., 1993) as template. Primer CEA1 (5′-[…]-3′, forward: SEQ ID NO. 26) was used in combination with primer SANA1 (5′-[…]-[…]-3′, reverse: SEQ ID NO. 27) to amplify SAN2, SANA2 (5′-[…]-3′, reverse: SEQ ID NO. 28) for SAN4 and SANA3 (5′-[…]-3′, reverse: SEQ ID NO. 29) for SAN6. Fragments encoding three N-terminally truncated peptides were amplified using primer SANB1 (5′-[…]-[…]-3′: SEQ ID NO. 30) for SAN3, SANB2 (5′-[…]-TT-[…]-3′: SEQ ID NO. 31) for SAN5 and SANB3 (5′-GGGGGG-[…]-3′: SEQ ID NO. 32) for SAN7, all three in combination with primer SAN1 (5′[…]-[…]-3′, reverse: SEQ ID NO. 33) and the same template. The fragments were cloned in pGEM-T and sequenced. The fragments encoding SAN2, SAN3, SAN4, SAN5, SAN6 and SAN7 were excised as BamHI-HindIII fragments and introduced in vector pQE30ΔXN (Smit et al., 2001) in frame with an N-terminal six histidine tag. Expression of gene fragments and purification of the gene products was performed as described previously (Smit et al., 2001).

[2] = molecular target: the molecule itself; assay: SDS-PAGE and western blot, self-association

Row | Protein | binding result [1] | binding result [2]
1 | B1 | binds | –
2 | B2 | binds | –
3 | B3 | binds | –
4 | B4 | binds | –
5 | B5 | – | binds

Reference: US20100172938A1 (NEDERLANDSE ORGANISATIE VOOR TOEGEPAST …, published 2010)
